US7166733B2, “O,O'-Amidomalonate and N,O-Amidomalonate platinum complexes” (priority 2000, dated 2007)

Assay: Dependence on pH of the isomer ratio of O,O′—Pt to N,O—Pt chelate (195Pt NMR of timed aliquots)
Format: physicochemical
Experimental: The percent of O,O′- and N,O-chelate in timed aliquots of reactions mixtures were determined by removing enough of the reaction mixture (4–15 mL depending on concentration) to give greater than 100 mg of Pt-chelate if only ^195Pt NMR spectroscopy was to be done or about 200 mg if % Pt, and % H2O were also to be determined. The aliquots were purified by ultrafiltration using a Centricon Plus-20 centrifugal filter with a 5 kDa Biomax membrane from Millipore. The charged device was spun at the recommended RCF until less than 1 mL remained. The filtrate was discarded, the retentate was diluted with 15–18 mL water and the sample was centrifuged. This was repeated once more, and the retentate was lyophilized to give the sample for analysis.
^195Pt NMR spectra were obtained from a filtered 0.70 mL solution in 93/7 H2O/D2O in a 5 mm tube. Enough sample (80–120 mg) was used to give a solution that was >50 mM in platinum. The probe was tuned for each sample. A pulse width of 90 degrees, an acquisition time of 10 msec, a spectral window of 100 kHz and no delay was used. The transmitter was tuned to approximately midway between the O,O′—Pt and N,O—Pt chelates shifts (−1896 ppm for cis-diammine Pt and at −2450 for DACH—Pt). Between 50,000 and 1 million transients were typically required to obtain a sufficient (>35:1) s/n ratio for the cis-diammine-Pt and DACH=Pt species, respectively. The resulting FID was increasingly left-shifted until a flat baseline was obtained, a 100 Hz line broadening was applied, and a Fourier fill of 2048 was applied before processing. Integral regions were set and the spectrum's baseline was subjected to a spline fit using VNMR software v6.1. The sample was referenced externally to a 100 mM sample of K2PtCl4 in 95/5H2O/D2O and 100 mM HCl at −1624 ppm. This was also used to determine the 90 degree pulse width and T1.
Four 50 mL Centrifuge tubes were each charged with 1.00 g of p(HPMA)-GFLG-Ama=Pt(NH3)2 (either 100% N,O-chelate) or a 92% O,O-chelate, 8% N,O-chelate mixture. These materials were dissolved in 27 mL Milli-Q water (approx a 4 wt % solution) and adjusted to the pH ranges desired using 1 M NaOH or 5% HClO4 as appropriate. The samples were then heated, with stirring, in a 38° C. water bath and maintained within their specified pH ranges. Timed aliquots were taken and frozen until a suitable time at which point the solutions were concentrated by centrifugal ultrafiltration (one spin down at 4800 rpm, 30° C.) and then transferred to an NMR tube. A small amount of D2O was added to each tube and the ^195Pt NMR spectra were recorded.

[1] = pH 5.0–5.5, 38° C., 100 mM ClO4^−, 1 h
[2] = pH 5.0–5.5, 38° C., 100 mM ClO4^−, 5 h
[3] = pH 5.0–5.5, 38° C., 100 mM ClO4^−, 8 h
[4] = pH 5.0–5.5, 38° C., 100 mM ClO4^−, 22 h
[5] = pH 5.0–5.5, 38° C., 100 mM Cl^−, 1 h
[6] = pH 5.0–5.5, 38° C., 100 mM Cl^−, 5 h
[7] = pH 5.0–5.5, 38° C., 100 mM Cl^−, 8 h
[8] = pH 5.0–5.5, 38° C., 100 mM Cl^−, 22 h

poly(HPMA)-GFLG-Ama=Pt(NH3)2, N,O—Pt chelate [Example 4]
N,O— chelate (pH 3.0–3.5, 38° C., 1 h): 2%
O,O— chelate (pH 3.0–3.5, 38° C., 1 h): 98%
N,O— chelate (pH 3.0–3.5, 38° C., 5 h): 0%
O,O— chelate (pH 3.0–3.5, 38° C., 5 h): 100%
N,O— chelate (pH 3.0–3.5, 38° C., 20 h): 0%
O,O— chelate (pH 3.0–3.5, 38° C., 20 h): 100%
N,O— chelate (pH 4.0–4.5, 38° C., 1 h): 55%
O,O— chelate (pH 4.0–4.5, 38° C., 1 h): 45%
N,O— chelate (pH 4.0–4.5, 38° C., 5 h): 44%
O,O— chelate (pH 4.0–4.5, 38° C., 5 h): 56%
N,O— chelate (pH 4.0–4.5, 38° C., 20 h): 32%
O,O— chelate (pH 4.0–4.5, 38° C., 20 h): 68%
N,O— chelate [1]: 90%
O,O— chelate [1]: 10%
N,O— chelate [2]: 88%
O,O— chelate [2]: 12%
N,O— chelate [3]: 77%
O,O— chelate [3]: 23%
N,O— chelate [4]: 75%
O,O— chelate [4]: 25%
N,O— chelate [5]: 91%
O,O— chelate [5]: 9%
N,O— chelate [6]: 92%
O,O— chelate [6]: 8%
N,O— chelate [7]: 89%
O,O— chelate [7]: 11%
N,O— chelate [8]: 87%
O,O— chelate [8]: 13%
N,O— chelate (pH 5.0–5.5, 38° C., 1 h): 94%
O,O— chelate (pH 5.0–5.5, 38° C., 1 h): 6%
N,O— chelate (pH 5.0–5.5, 38° C., 5 h): 85%
O,O— chelate (pH 5.0–5.5, 38° C., 5 h): 15%
N,O— chelate (pH 5.0–5.5, 38° C., 20 h): 81%
O,O— chelate (pH 5.0–5.5, 38° C., 20 h): 19%
N,O— chelate (pH 6.0–6.5, 38° C., 1 h): 100%
O,O— chelate (pH 6.0–6.5, 38° C., 1 h): 0%
N,O— chelate (pH 6.0–6.5, 38° C., 5 h): 100%
O,O— chelate (pH 6.0–6.5, 38° C., 5 h): 0%
N,O— chelate (pH 6.0–6.5, 38° C., 20 h): 100%
O,O— chelate (pH 6.0–6.5, 38° C., 20 h): 0%
